Publication PMC11438954 (Nature Communications, 2024)

Assays:
[1] = biological target: NavMs (NavMs F208L, referred to as WT in the paper), prokaryotic voltage-gated sodium channel from Magnetococcus marinus (Magnetococcus marinus) (UniProt A0L5S6); assay: crystal structure; NavMs (10 mg/ml, 300 uM) with 0.5 mM riluzole in 1% DMSO, or 1% DMSO alone; sitting drops at 4 °C, 30-35% PEG 300, 100 mM HEPES pH 7, 0-100 mM NaCl, HEGA-10 detergent; space group I422, one monomer per asymmetric unit, tetramer by crystal symmetry
NavMs = biological target: T1, NavMs (Magnetococcus marinus, UniProt A0L5S6, F208L); assay: X-ray crystal structure with sulphur anomalous signal; […]-19F STD NMR; IC50 from whole-cell patch clamp (SSI shift) in HEK293T cells; assay type: cell-based
T1 construct: gene Mmc1_0798; full-length homotetrameric channel, thrombin-treated
T1 sequence (A0L5S6 entry or part of it F208L): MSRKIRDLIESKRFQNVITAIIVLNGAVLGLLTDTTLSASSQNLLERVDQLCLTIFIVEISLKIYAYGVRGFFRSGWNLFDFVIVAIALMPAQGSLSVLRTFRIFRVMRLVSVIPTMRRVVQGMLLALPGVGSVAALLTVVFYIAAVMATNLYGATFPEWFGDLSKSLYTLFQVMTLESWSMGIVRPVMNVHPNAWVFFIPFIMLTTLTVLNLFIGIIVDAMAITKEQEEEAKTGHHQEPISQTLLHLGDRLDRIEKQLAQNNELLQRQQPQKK

Compound | stoichiometry N [1] | IC50 (NavMs)
NavMs (NavMs F208L, referred to as WT in the paper), prokaryotic voltage-gated sodium channel from Magnetococcus marinus (from UniProt A0L5S6 1-274) (natural protein) | 4 | –
Nc1nc2ccc(OC(F)(F)F)cc2s1 [riluzole, 2-amino-6-(trifluoromethoxy)benzothiazole] | – | 2000 nM
